Measurements from patent publication US20020049180A1.

Target: GST-fusion protein containing amino acids 327-517 of KIAA0175 (human) (UniProt Q14680)
Experiment: cell-based or functional assay

- increase of phosphorylation by ATM immunoprecipitated from gamma-irradiated cells: 2 to 3 fold
Substance: Ataxia telangiectasia mutated (ATM) (from UniProt Q13315 2-3056) (enzyme)
